Target: SECRET domain (smallpox virus-encoded chemokine receptor domain) of the vTNFR CrmD encoded by ectrom (ectromelia virus)
Test: crystal structure

For “chemokine domain of human CX3CL1 (residues 1-76) (from UniProt P78423 25-100) (domain or fragment)”, which stoichiometry N is on record?
The stoichiometry N was 1.

Source: publication PMC3145792
